In PMC11920956:

Legend:
[1] = biological target: Lys4 (position 4, --VERKEG---); assay: potentiometry; conditions: 298 K, 0.1 M NaClO4
Tyr16 (position 16, …-) = assay: potentiometry; conditions: 298 K; 0.1 M NaClO4; none (4 mM HClO4, 0.5 mM peptide); free peptide, no metal

| Protein | pKa ([1]; none (4 mM HClO4, 0.5 mM peptide), free peptide, no metal) | pKa ([1]; none (4 mM HClO4, 0.5 mM peptide, Mohr's salt as Fe(II) source), Fe(II) present, Fe(II):L = 1:1.1, step [FeLH-3]2- to [FeLH-4]3- of the 1:1 Fe(II):L2 complex) | pKa (Tyr16 (position 16, …-)) |
| --- | --- | --- | --- |
| VERKEG | 9.92 | 9.87 | – |
| IMRGEATPFVMELPVYHVPH [L1, peptide model of the Core CFeoB region of FeoB (residues 477-496) (Escherichia coli K12)] | – | – | 9.67 |
